Reference: article PMC3299731 (PLoS ONE, 2012)

How the values were obtained:
[1] = molecular target: the molecule itself; test: SEC; purified homomeric 6×His-translin proteins on Superdex 200 10/300 GL calibrated with molecular weight markers (29-440 kDa); octamer
[2] = molecular target: T1, translin (human, UniProt Q15631 1-228); test: UV-laser crosslinking (248 nm); 50 pmol each in 50 uL; 25 mM Tris-HCl pH 8.0, 100 mM NaCl, 1 mM EDTA, 30 min; temperature not stated; 4.5% native PAGE in 0.5x TBE; settings: protein: recombinant; tags: N-terminal 6xHis; chain copies: 8; label: 5'-32P (unlabeled in agarose EMSA)
[3] = molecular target: T1, translin; test: EMSA; 50 nM octamer, 100 nM DNA; 25 mM Tris-HCl pH 8.0, 100 mM NaCl, 1 mM EDTA, 30 min; temperature not stated; 4.5% native PAGE in 0.5x TBE; settings: protein: recombinant; tags: N-terminal 6xHis; chain copies: 8; label: 5'-32P (unlabeled in agarose EMSA)

Binder | stoichiometry N [1] | binding result [2] | binding result [3]
Mutant of basic-2 motif of human translin, homomeric, N-terminal 6×His tag (natural protein, UniProt Q15631 1-228, looked up, human translin with the B2 motif mutated, expressed from pQE9-translinB2; also called translinB2; translinB2 mutant; source: E. coli BL21(DE3), pQE9-translinB2, purified (Ni-IDA, Q-sepharose, Superdex 200); not shown: 6×His, N-terminal, kept) MSVSEIFVELQGFLAAEQDIREEIRKVVQSLEQTAREILTLLQGVHQGAGFQDIPKRCLKAREHFGTVKTHLTSLKTKFPAEQYYTFNENWRFVLQRLVFLAAFVVYLETETLVTREAVTEILGIEPDREKGFHLDVEDYLSGVLILASELSRLSVNSVTAGDYSRPLHISTFINELDSGFRLLNLKNDSLRKRYDGLKYDVKKVEEVVYDLSIRGFNKETAAACVEK | 8 |  | 
Mutant of basic-3 motif of human translin, homomeric, N-terminal 6×His tag (natural protein, UniProt Q15631 1-228, looked up, human translin with the B3 motif mutated, expressed from pQE9-translinB3; also called translinB3; translinB3 mutant; source: E. coli BL21(DE3), pQE9-translinB3, purified (Ni-IDA, Q-sepharose, Superdex 200); not shown: 6×His, N-terminal, kept) MSVSEIFVELQGFLAAEQDIREEIRKVVQSLEQTAREILTLLQGVHQGAGFQDIPKRCLKAREHFGTVKTHLTSLKTKFPAEQYYRFHEHWRFVLQRLVFLAAFVVYLETETLVTREAVTEILGIEPDREKGFHLDVEDYLSGVLILASELSRLSVNSVTAGDYSRPLHISTFINELDSGFRLLNLKNDSLTNSNDGLKYDVKKVEEVVYDLSIRGFNKETAAACVEK | 8 |  | 
GCCCTCCTGCCCTCCTTCCGCGGG (ssDNA) [Bcl-CL1 24-mer] |  | binds | binds
